From patent US20160030526A1

What was measured:
[1] = biological target: human CD25 (human IL-2 receptor) on human CD25+ T-cell lymphoma cells HUT 102/6TG (human) (UniProt P01589); assay: cell-based or functional assay
[2] = biological target: human CD25 (human IL-2 receptor) on human CD25+ T-cell lymphoma cells HUT 102/6TG (human) (UniProt P01589)
[3] = biological target: human CD25 (human IL-2 receptor) on human CD25+ T-cell lymphoma cells HUT 102/6TG (human) (UniProt P01589); assay: flow cytometry on HUT 102/6TG cells

human CD25 (human IL-2 receptor) on human CD25+ T-cell lymphoma cells HUT 102/6TG (human), sequence (P01589 22-272): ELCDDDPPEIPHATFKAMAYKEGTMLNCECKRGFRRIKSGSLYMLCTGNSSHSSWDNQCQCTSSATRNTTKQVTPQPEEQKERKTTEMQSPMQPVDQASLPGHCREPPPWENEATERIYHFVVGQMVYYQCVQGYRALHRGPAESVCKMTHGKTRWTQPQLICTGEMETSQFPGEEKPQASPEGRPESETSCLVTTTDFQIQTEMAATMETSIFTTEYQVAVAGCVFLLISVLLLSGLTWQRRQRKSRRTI

| Substance | IC50 of protein synthesis inhibition (3H-leucine) in HUT 102/6TG cells [1] | Kd [2] | affinity against the monovalent isoform (DT390-hIL-2) [3] |
| --- | --- | --- | --- |
| bivalent human IL-2 fusion toxin (DT390-bi-hIL-2-6xHis) | 0.0002 nM |  |  |
| bivalent human IL-2 fusion toxin (DT390-bi-hIL-2-6xHis) (other; other documents disagree on this pair) |  | 0.21 nM | 2 logs |
| monovalent human IL-2 fusion toxin (DT390-hIL-2-6xHis) | 0.02 nM |  |  |
| monovalent human IL-2 fusion toxin (DT390-hIL-2-6xHis) (other; other documents disagree on this pair) |  | 15.9 nM |  |
